Target: human MC1r (melanocortin receptor type 1) (human) (UniProt Q01726)
Assay: cell-based or functional assay

Sequence of UniProt Q01726 (Q01726 whole entry): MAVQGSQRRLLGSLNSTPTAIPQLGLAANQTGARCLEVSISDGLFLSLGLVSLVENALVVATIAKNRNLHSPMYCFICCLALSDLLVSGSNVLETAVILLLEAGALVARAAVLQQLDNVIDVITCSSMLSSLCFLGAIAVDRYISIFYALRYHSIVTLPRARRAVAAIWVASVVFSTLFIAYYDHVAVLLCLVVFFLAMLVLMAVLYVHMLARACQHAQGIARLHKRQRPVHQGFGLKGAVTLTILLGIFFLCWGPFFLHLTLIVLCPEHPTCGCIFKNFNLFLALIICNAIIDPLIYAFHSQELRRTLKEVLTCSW

## Ac-KKKKKKSYSMEHFRWGKPV-NH2 [Ac(Lys)6-αMSH (Ac(Lys)6-Ser-Tyr-Ser-Met-Glu-His-Phe-Arg-Trp-Gly-Lys-Pro-Val-NH2)]
  EC50, cAMP production: 2.12 nM
  Emax (max efficacy expressed as percent of αMSH), cAMP production: 72 % of αMSH

Reference: patent US20160074469A1
